The text below walks through data of patent US20130251702A1, “METHOD FOR SCREENING COMPOUNDS FOR TREATING SEPSIS TARGETING NOD2 SIGNALLING PATHWAY AND COMPOSITION FOR TREATING SEPSIS COMPRISING NOD2 SIGNALLING PATHWAY INHIBITORS” (SNU R&DB FOUNDATION, priority 2012, published 2013).

In series [1] the test system is NOD2-mediated IL-1β and IL-10 production. Put plainly: Peritoneal immune cells cultured with SB203580 and/or MDP, IL-1β and IL-10 measured in culture. The format is cell-based, mice. The protocol:
(§1) Concentrations of IL-1β, IL-6, IL-10, IFN-γ, TNF-α and C5a in serum and peritoneal fluid were measured in CLP-induced sepsis mice. All cytokines were measured using a BD Bioscience ELISA kit according to the manufacturer's instructions. Colorimetric reactions were stopped by adding 3 N HCl, and the optical absorbance at 450 and 570 nm was determined using a spectrophotometer.
To investigate the mechanism by which NOD2 enhances C5 generation during polymicrobial infection, serum and peritoneal levels of various cytokines in WT and Nod2^−/− mice were estimated after CLP. […] To confirm whether NOD2-mediated signals induce IL-1β and IL-10 production by immune cells, peritoneal cells from WT and Nod2^−/− mice were cultured with MDP, a NOD2 agonist. […] Among immune cells, monocytes, granulocytes, and dendritic cells, but not T or B cells, express NOD 2 (Gutierrez, O. et al. Induction of Nod2 in myelomonocytic and intestinal epithelial cells via nuclear factor-kappa B activation. J Biol Chem 277, 41701-41705 (2002)).
Upon activation, NOD2 oligomerizes and recruits the nuclear factor (NF)-κB-activating kinase receptor-interacting protein 2 (RIP2) via a homotypic CARD-CARD (caspase recruitment domain) interaction, triggering IκB phosphorylation and NF-κB activation.

The target of the next series is T1, RIP2 (Mus musculus, UniProt P58801).
T1 construct: reduced phosphorylation of RIP2 and P38 in peritoneal immune cells; endogenous in cells
T1 sequence (P58801 whole entry): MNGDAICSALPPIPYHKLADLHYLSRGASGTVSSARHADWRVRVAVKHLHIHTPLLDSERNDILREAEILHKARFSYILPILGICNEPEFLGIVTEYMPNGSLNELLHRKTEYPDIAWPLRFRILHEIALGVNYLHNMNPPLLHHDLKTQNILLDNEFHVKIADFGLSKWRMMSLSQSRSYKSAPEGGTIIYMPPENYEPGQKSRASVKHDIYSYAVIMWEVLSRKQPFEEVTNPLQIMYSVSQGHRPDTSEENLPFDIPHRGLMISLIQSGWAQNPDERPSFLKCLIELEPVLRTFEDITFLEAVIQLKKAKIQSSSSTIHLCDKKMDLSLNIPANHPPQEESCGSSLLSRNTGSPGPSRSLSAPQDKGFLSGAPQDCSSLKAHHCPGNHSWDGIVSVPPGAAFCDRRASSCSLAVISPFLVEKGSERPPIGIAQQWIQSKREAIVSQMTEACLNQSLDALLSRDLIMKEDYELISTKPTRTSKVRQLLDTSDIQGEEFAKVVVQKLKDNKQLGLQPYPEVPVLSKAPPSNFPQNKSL
Put plainly: Blot of RIP2 phosphorylation in peritoneal immune cells during CLP-induced sepsis. The format is in vivo. Conditions: WT mice, SB203580 50 μg/mouse i.p.

The test system of another series is CLP-induced sepsis mice. The experiment in a line: Serum and peritoneal cytokine and complement levels (ELISA) in CLP-induced sepsis mice. The following applies: for serum and peritoneal C5a generation: WT or Nod2−/− mice, recombinant cytokine 4 h or 12 h after CLP. Type of series: in vivo. The protocol:
(§2) To deplete Gr-1^+cells in vivo, WT B6 or NOD2−/− mice were i.p. injected with anti-Gr-1 mAb (160 μg/injection) (BD Bioscience, Sparks, Md., USA) 2 and 3 days prior to CLP. Recombinant mouse (mr) IL-1β (40 μg/mouse) or IL-10 (30 μg/mouse) (ProSpec-Tany TechnoGene, Rehovot, Israel) was i.p. injected into WT or Nod2^−/− mice 4 or 12 h after CLP, respectively. mrC5a (5 μg/injection) or anti-05a mAb (100 μg/injection) (R&D Systems Inc., Minneapolis, Minn., USA) was i.p. injected into WT or Nod2^−/− mice 4 and 12 h after CLP.
as §1
A general note: ELISA stands for enzyme-linked immunosorbent assay.

A further series concerns CLP-induced sepsis. Put plainly: Survival in CLP-induced sepsis. The following applies: for survival during CLP-induced sepsis: WT mice injected with recombinant protein after CLP. Type of series: in vivo, mice. The protocol: as §2
Survival data were plotted as Kaplan-Meier survival curves and analyzed using the log-rank test. Statistical significance was analyzed using Prism 5.0 (GraphPad Software Inc, San Diego, Calif., USA). One-way and two-way analyses of variance (ANOVA) and t-tests was performed, and a post hoc test was used if P<0.05. Data are expressed as the mean±standard error of the mean.

The subject of a further series is CD55. The experiment in a line: CD55 expression on Ly6-G+ peritoneal cells (flow cytometry) after CLP. The format is in vivo, mice. The protocol:
as §2
PLF cells were incubated with antibodies on ice for 30 min in 100 μl of staining buffer (0.5% BSA). FITC-conjugated anti-Ly-6G, phycoerythrin (PE)-conjugated anti-CD4 mAb, PE-conjugated anti-CD8, PE-conjugated anti-MHC class II, FITC-conjugated anti-CD80, FITC-conjugated anti-CD86, FITC-conjugated anti-annexin V mAbs, and 7AAD (7-amino-actinomycin D) were purchased from BD Biosciences. PE Cy5- or Alexa 647 (eBioscience, San Diego, Calif., USA)-conjugated anti-F4/80 mAb was used. Stained cells were then run on an LSR II and FACs caliber (BD Bioscience) and analyzed using Flowjo software (Treestar, Ashland, Oreg., USA).

For series [2] the following is noted: cited from earlier work.
The next series relates to peritoneal immune cells. The experiment in a line: Responsiveness of peritoneal immune cells from CLP mice against LPS (cytokine production LPS vs PBS). The format is in vivo. The following applies: for LPS-mediated cytokine production by peritoneal immune cells: cells from Nod2−/− mice with CLP. The protocol: as §2
(§3) During bacterial septic shock, C5a triggers coagulopathy and neutrophil dysfunction, thereby defective bacterial clearance and cytokine production (Ward, P. A. The dark side of C5a in sepsis. Nat Rev Immunol 4, 133-142 (2004)). Therefore, to estimate C5a effects on immune responses in WT B6 and Nod2^−/− mice during infection, we examined the responsiveness of immune cells against lipopolysaccharide (LPS) and macrophage phagocytic activity, bacteria colony-forming units (CFUs), and levels of serum D-dimer after CLP. To estimate the responsiveness of peritoneal immune cells against LPS, peritoneal cells obtained from B6 or Nod2^−/− mice 24 h after CLP were stimulated with LPS or PBS (FIG. 1C). The responsiveness of peritoneal immune cells against LPS was determined by estimating ratios of individual cytokines produced against LPS versus PBS. Peritoneal immune cells obtained from Nod2^−/− mice 24 h after CLP produced higher IL-1β, IL-6, and TNF-αlevels against LPS than did WT peritoneal cells. The levels of serum D-dimer in Nod2^−/− mice were lower than those in WT mice (FIG. 1D). However, peritoneal cells obtained from Nod2^−/− mice engulfed more FITC-conjugated Escherichia coli than did WT peritoneal cells (FIG. 1E). Consistent with these findings, bacteria CFU levels in the blood and liver homogenates were higher in WT B6 mice than in Nod2^−/− mice (FIG. 1F). Recombinant C5a administration to Nod2^−/− mice with CLP reversed cytokine production by peritoneal immune cells and serum D-dimer levels, but not phagocytosis activity and bacterial CFUs.

The subject of a further series is bacteria. Put plainly: Bacterial CFUs in blood and liver homogenates after CLP. The format is in vivo. The following applies: Nod2−/− mice with CLP. The protocol:
Bacterial CFUs were determined by plating serial dilutions of blood and liver homogenates onto blood agar plates (Hanil Komed, Seoul, Korea), which were incubated in 5% CO2 at 37° C. overnight. The number of colonies was counted 18 h later.

Series [3] in a line: Serum D-dimer levels after CLP. The following applies: Nod2−/− mice with CLP. Type of series: in vivo.
Text: as §3, with “Recombinant C5a administration to Nod2^−/− mice with CLP reversed cytokine production by peritoneal immune cells and serum D-dimer levels, but not phagocytosis activity and bacterial CFUs.” left out

The test system of a further series is peritoneal cells. The experiment in a line: Bacterial phagocytosis by peritoneal immune cells (FITC-labeled E. coli). Type of series: in vivo. Conditions: Nod2−/− mice with CLP. The protocol:
Peritoneal fluid cells of WT B6 or Nod2^−/− mice were cultured with FITC-labeled E. coli (Invitrogen, Carlsbad, Calif., USA) for 15 min. Cells attached on the plates were washed with warm PBS three times and then treated with 0.2% trypan blue for 1 min at room temperature. Cells were fixed with 4% formalin for 15 min and cultured with FITC-labeled E. coli. to estimate nonspecific binding of E. coli on the cell surface. These cells, which were cultured with FITC-labeled E. coli, were then run on the FACs caliber machine and analyzed with Flowjo software.

[4] abbreviates: WT mice peritoneal immune cells, SB203580 20 nM, MDP 20 μg/ml, 24 h.
Setting [5] is: WT mice, CLP, SB203580 50 μg/mouse i.p.
Setting [6] is: 73 patients treated, Critical Care Medicine 2009.
Where [7] appears, read: Nod2−/− mice injected with recombinant protein after CLP.
Setting [8] is: Nod2−/− mice, polymicrobial infection.

As for `CC(=O)N[C@@H]1[C@@H](O[C@H](C)C(=O)N[C@@H](C)C(=O)N[C@H](CCC(=O)O)C(N)=O)[C@H](O)[C@@H](CO)O[C@H]1O` [MDP], in [1] (NOD2-deficient cells), the “IL-1β production upon MDP treatment” value was “minimally produced” and the “IL-10 production upon MDP treatment” value was “minimally produced”. In series [1] (WT peritoneal immune cells), the “IL-1β production upon MDP treatment” value is given as “produced” and the “IL-10 production upon MDP treatment” value is “produced”.
With `C[S+]([O-])c1ccc(-c2nc(-c3ccncc3)c(-c3ccc(F)cc3)[nH]2)cc1` (centres unmarked) [SB203580, reference compound], the “phosphorylation of RIP2 in peritoneal immune cells” value at RIP2 is “reduced”. Moreover, in [1] (setting [4]), the “MDP-mediated IL-1β production by peritoneal cells” value is “decreased” and the “MDP-mediated IL-10 production by peritoneal cells” value is given as “decreased”. Also, in the series on CLP-induced sepsis mice (setting [5]), the “levels of serum and peritoneal C5a during sepsis” value is “reduced”; the “levels of serum and peritoneal IL-1β during sepsis” value was “reduced”; the “levels of serum and peritoneal IL-10 during sepsis” value was “reduced”. The CLP-induced sepsis entry with CLP-induced sepsis (WT mice injected with SB203580, FIG. 6 legend) is “attenuates”. In the series with CLP-induced sepsis (WT mice, SB203580 50 μg/mouse i.p. vs PBS), the “survival rates during CLP-induced sepsis” value is on record as “increased”. Further, the “CD55 expression levels of Ly6-G+ granulocytes” value with CD55 (setting [5]) is listed as “reduced”.
Drotrecogin alfa [Xigris]: in [2] (setting [6]), the fatality entry is “increased” and the hemorrhage result is “severe hemorrhage had occurred”. Moreover, the “severe side effect in clinical trial” value in [2] (pediatric patients with severe blood infection) is “cerebral hemorrhage”.

B1: recombinant C5a: recombinant mouse C5a, i.p. injected 5 μg/injection (protein, UniProt P06684 679-755, looked up)
C5a anaphylatoxin: NLHLLRQKIEEQAAKYKHSVPKKCCYDGARVNFYETCEERVARVTIGPLCIRAFNECCTIANKIRKESPHKPVQLGR
modifications: C5a anaphylatoxin
notes: recombinant mouse C5a, i.p. injected 5 μg/injection
In the case of B1, the “LPS-mediated cytokine production by peritoneal immune cells” value (“LPS-mediated cytokine production” below) with peritoneal immune cells is “reversed”. In addition, the “survival rates during CLP-induced sepsis” value in the series with CLP-induced sepsis (setting [7]) is given as “decreased”. The “survival during CLP-induced sepsis” value with CLP-induced sepsis is reported as “did not cause survival changes”. The “bacterial CFUs in the blood or liver homogenates” value (from here on “bacterial CFUs”) in the series with bacteria is given as “not”. Further, the “serum D-dimer levels” value in series [3] is reported as “reversed”.

B2: recombinant IL-10: Recombinant mouse IL-10, 30 μg/mouse i.p. (protein, UniProt P18893 19-178, looked up)
Interleukin-10: SRGQYSREDNNCTHFPVGQSHMLLELRTAFSQVKTFFQTKDQLDNILLTDSLMQDFKGYLGCQALSEMIQFYLVEVMPQAEKHGPEIKEHLNSLGEKLKTLRMRLRRCHRFLPCENKSKAVEQVKSDFNKLQDQGVYKAMNEFDIFINCIEAYMMIKMKS
With B2, the “LPS-mediated cytokine production” value with peritoneal immune cells is “suppressed”. In the series on CLP-induced sepsis mice, the “serum and peritoneal C5a generation” value is given as “enhanced”. Moreover, the “survival rates during CLP-induced sepsis” value with CLP-induced sepsis (setting [7]) was “reduced”. In the series with CLP-induced sepsis, the “survival during CLP-induced sepsis” value is reported as “did not affect”. Also, in the series on bacteria, the “bacterial CFUs” value is “not”. In the series with CD55 (setting [8]), the “CD55 expression on F4/80−Ly6-G+ peritoneal cells” value is reported as “decreased”.

B3: recombinant IL-1β: Recombinant mouse (mr) IL-1β, 40 μg/mouse i.p. (protein, UniProt P10749 118-269, looked up)
Interleukin-1 beta: VPIRQLHYRLRDEQQKSLVLSDPYELKALHLNGQNINQQVIFSMSFVQGEPSNDKIPVALGLKGKNLYLSCVMKDGTPTLQLESVDPKQYPKKKMEKRFVFNKIEVKSKVEFESAEFPNWYISTSQAEHKPVFLGNNSGQDIIDFTMESVSS
As to B3, the “phagocytosis of bacteria by peritoneal cells” value in the series on peritoneal cells is “reduced”. The “LPS-induced cytokine production by peritoneal immune cells” value in the series on peritoneal immune cells (cells from Il-10−/− mice with CLP) is given as “did not alter”. The “LPS-mediated cytokine production” value in the series on peritoneal immune cells is listed as “suppressed”. For the same molecule, in the series with CLP-induced sepsis mice (Il-10−/− mice with CLP), the “C5a levels during polymicrobial infection” value was “not altered”. In addition, in the series on CLP-induced sepsis mice (Nod2−/− mice, polymicrobial infection (CLP)), the “serum and peritoneal IL-10 levels” value is “enhanced”. Also, the “serum and peritoneal C5a generation” value in the series with CLP-induced sepsis mice is “enhanced”. Besides, in the series with CLP-induced sepsis (setting [7]), the “survival rates during CLP-induced sepsis” value is given as “reduced”. Further, the “survival during CLP-induced sepsis” value in the series on CLP-induced sepsis is listed as “did not affect”. The “bacterial CFUs” value in the series on bacteria is reported as “reduced”. The “CD55 expression on F4/80−Ly6-G+ peritoneal cells” value is recorded as “did not decrease” with CD55 (Il-10−/− mice) and “decreased” in the series with CD55 (setting [8]).
